Here are results for one substance from article PMC10175742.

The assay has as its target N-cadherin (UniProt P19022). The assay can be described thus: confocal 3D colocalisation. Particulars: reference: nonfailing control (NFC) heart tissue; sites S637,S647,T649,S650.

As to “αT-catenin (CTNNA3) (from UniProt Q9UI47) DCM heart tissue”, the “other: Pearson's correlation coefficient” value is “stronger; reference 0.55 ± 0.04”.
